Patent US20220202913, “NOVEL OMNI-50 CRISPR NUCLEASE” (EmendoBio Inc., published 2022)

T1: OMNI-50 (Ezakiella peruensis strain M6.X2)
T1 sequence: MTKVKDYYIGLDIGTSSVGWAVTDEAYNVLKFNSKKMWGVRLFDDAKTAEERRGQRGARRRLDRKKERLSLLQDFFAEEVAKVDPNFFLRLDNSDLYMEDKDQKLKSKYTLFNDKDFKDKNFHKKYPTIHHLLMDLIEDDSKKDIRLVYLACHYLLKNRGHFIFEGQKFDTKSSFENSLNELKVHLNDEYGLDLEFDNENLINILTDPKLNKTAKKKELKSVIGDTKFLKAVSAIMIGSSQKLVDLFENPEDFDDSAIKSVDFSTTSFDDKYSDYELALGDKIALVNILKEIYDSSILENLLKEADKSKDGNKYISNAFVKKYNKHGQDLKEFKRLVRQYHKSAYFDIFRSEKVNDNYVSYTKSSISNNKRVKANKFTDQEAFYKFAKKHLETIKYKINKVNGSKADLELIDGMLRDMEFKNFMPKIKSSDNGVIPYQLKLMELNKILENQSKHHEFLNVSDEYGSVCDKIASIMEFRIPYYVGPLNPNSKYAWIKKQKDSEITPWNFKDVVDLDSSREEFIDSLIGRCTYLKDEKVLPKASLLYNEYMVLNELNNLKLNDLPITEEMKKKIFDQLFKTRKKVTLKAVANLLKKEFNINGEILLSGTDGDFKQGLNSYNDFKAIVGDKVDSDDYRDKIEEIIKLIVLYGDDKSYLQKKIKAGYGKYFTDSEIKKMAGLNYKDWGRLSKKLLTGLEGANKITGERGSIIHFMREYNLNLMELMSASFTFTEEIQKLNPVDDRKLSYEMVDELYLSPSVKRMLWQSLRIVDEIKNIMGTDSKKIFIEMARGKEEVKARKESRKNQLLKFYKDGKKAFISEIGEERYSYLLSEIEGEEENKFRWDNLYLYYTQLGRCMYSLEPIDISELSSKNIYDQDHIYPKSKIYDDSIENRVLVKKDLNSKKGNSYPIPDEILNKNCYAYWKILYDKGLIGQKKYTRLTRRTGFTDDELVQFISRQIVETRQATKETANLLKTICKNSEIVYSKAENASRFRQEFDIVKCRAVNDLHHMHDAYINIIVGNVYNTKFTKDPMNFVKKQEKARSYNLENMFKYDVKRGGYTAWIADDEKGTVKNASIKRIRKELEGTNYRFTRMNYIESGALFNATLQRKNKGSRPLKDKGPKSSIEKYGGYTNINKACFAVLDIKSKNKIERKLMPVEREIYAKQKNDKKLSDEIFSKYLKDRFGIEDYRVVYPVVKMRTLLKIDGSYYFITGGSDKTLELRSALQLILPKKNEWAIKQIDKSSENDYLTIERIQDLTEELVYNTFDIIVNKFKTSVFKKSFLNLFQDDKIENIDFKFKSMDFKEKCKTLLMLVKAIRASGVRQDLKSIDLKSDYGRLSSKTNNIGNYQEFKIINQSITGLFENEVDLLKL

T2: OMNI-50 (Ezakiella peruensis strain M6.X2)
T2 chain: T1 sequence

B1: ELANE g35 sgRNA V2 22 nt spacer ; ELANE g35 on-target (ssRNA ; dsDNA)
RNA: GCAGUCCGGGCUGGGAGCGGGUGUUUGAGAGUUAUGUAAGAAAUUACAUGACGAGUUCAAAUAAAAAUUUAUUCAAACCGCCUAUUUAUAGGCCGCAGAUGUUCUGCAUUAUGCUUGCUAUUGCAAGCUUUUUU
DNA 1: CTGTTGCTGCAGTCCGGGCTGGGAGCGGGTGGGGAGCAGAGGG
DNA 2: CCCTCTGCTCCCCACCCGCTCCCAGCCCGGACTGCAGCAACAG
modifications: three 2'-OMe 3'-PS at 5' and 3' ends
B2: ELANE g35 sgRNA V2 20 nt spacer ; ELANE g35 on-target (ssRNA ; dsDNA)
RNA: AGUCCGGGCUGGGAGCGGGUGUUUGAGAGUUAUGUAAGAAAUUACAUGACGAGUUCAAAUAAAAAUUUAUUCAAACCGCCUAUUUAUAGGCCGCAGAUGUUCUGCAUUAUGCUUGCUAUUGCAAGCUUUUUU
DNA 1: B1 DNA 1
DNA 2: B1 DNA 2
modifications: three 2'-OMe 3'-PS at 5' and 3' ends
B3: ELANE g35 sgRNA V2 17 nt spacer ; ELANE g35 on-target (ssRNA ; dsDNA)
RNA: CCGGGCUGGGAGCGGGUGUUUGAGAGUUAUGUAAGAAAUUACAUGACGAGUUCAAAUAAAAAUUUAUUCAAACCGCCUAUUUAUAGGCCGCAGAUGUUCUGCAUUAUGCUUGCUAUUGCAAGCUUUUUU
DNA 1: B1 DNA 1
DNA 2: B1 DNA 2
modifications: three 2'-OMe 3'-PS at 5' and 3' ends

Legend:
[1] = system: T1, OMNI-50 (Ezakiella peruensis strain M6.X2); test: cleavage_in_vitro; conditions: TXTL PAM depletion, PAM NGG; some activity with NAG and NGA; sgRNA V1 and V2
OMNI-50 = target: T2, OMNI-50; test: cell_activity; PAM NGG; RNP in U2OS; conditions: tags: SV40 NLS N-terminal, HA-SV40 NLS-8xHis C-terminal (pET9a)
Description: FIG. 5A-FIG. 5D: OMNI-50 activity Assay as RNP. OMNI-50 nuclease was over-expressed and purified. The purified protein was complexed with synthetic sgRNA to form RNPs. For the in-vitro assays (FIG. 5A and FIG. 5B) RNPs were incubated with a linear DNA template containing the corresponding target and PAM sequences (listed in Table 5). Activity was verified by cleavage of the linear template. For the in-vivo assays (FIG. 5C and FIG. 5D), U2OS cells were electroporated with RNPs and activity was determined by measurement of indel frequency by NGS. FIG. 5A: Activity assay of OMNI-50 RNP with different spacer lengths (17-23 bps) of guide 35 (Table 10). FIG. 5B: Decreasing amounts of RNPs (4 pmol, 2 pmol, 1.2 pmol, 0.6 pmol and 0.2 pmol) with spacer lengths 20-23 nts were incubated with 100 ng DNA target template. FIG. 5C: Activity assay for OMNI-50 as RNP in U2OS cells: RNPs with spacer lengths 17-23 bps were electroporated into U2OS cell line and editing levels (indels) measured by NGS. FIG. 5D: Activity assay for OMNI-50 as RNP in U2OS cells: RNPs with ELANE g35 sgRNA V1-V4 were electroporated into U2OS cell line and editing levels (indels) measured by NGS.
Spacer length optimization was also performed in a mammalian cell context. RNPs were assembled by mixing 100 uM nuclease with 120 uM of synthetic guide with different spacer lengths (17-23 nt, Table 5) and 100 uM Cas9 electroporation enhancer (IDT). After 10 minutes of incubation at room temperature, the RNP complexes were mixed with 200,000 pre-washed U2OS, iPSC, or HSC cells and electroporated using Lonza SE or P3 Cell Line 4D-Nucleofector™ X Kit with the DN100 or CA137 program, respectively, according to the manufacture's protocol. At 72 h cells were lysed and their genomic DNA was used in a PCR reaction to amplify the corresponding putative genomic targets. Amplicons were subjected to NGS and the resulting sequences were then used to calculate the percentage of editing events.

| Molecule | activity (1-depletion score) [1] | activity (OMNI-50) |
| --- | --- | --- |
| GGAAGAGCAGAGCCUUGGUCUCGUUUGAGAGUUAUGUAAGAAAUUACAUGACGAGUUCAAAUAAAAAUUUAUUCAAACCGCCUAUUUAUAGGCCGCAGAUGUUCUGCAUUAUGCUUGCUAUUGCAAGCUUUUUU / GGAAGAGCAGAGCCTTGGTCTCNNNNNNNN / NNNNNNNNGAGACCAAGGCTCTGCTCTTCC [T2 sgRNA V2 ; T2 protospacer 8N PAM library] | 0.98 | – |
| B1 | – | 90.9 % indels |
| B2 | – | 43.8 % indels |
| B3 | – | 0.54 % indels |
